# Test results reported in PMC4103192 (Biochemical and biophysical research communications, 2010).
# B1: full-length rat NADPH dependent cytochrome P450 reductase (enzyme, UniProt P00388 1-678, looked up)
# chain: MGDSHEDTSATMPEAVAEEVSLFSTTDMVLFSLIVGVLTYWFIFRKKKEEIPEFSKIQTTAPPVKESSFVEKMKKTGRNIIVFYGSQTGTAEEFANRLSKDAHRYGMRGMSADPEEYDLADLSSLPEIDKSLVVFCMATYGEGDPTDNAQDFYDWLQETDVDLTGVKFAVFGLGNKTYEHFNAMGKYVDQRLEQLGAQRIFELGLGDDDGNLEEDFITWREQFWPAVCEFFGVEATGEESSIRQYELVVHEDMDVAKVYTGEMGRLKSYENQKPPFDAKNPFLAAVTANRKLNQGTERHLMHLELDISDSKIRYESGDHVAVYPANDSALVNQIGEILGADLDVIMSLNNLDEESNKKHPFPCPTTYRTALTYYLDITNPPRTNVLYELAQYASEPSEQEHLHKMASSSGEGKELYLSWVVEARRHILAILQDYPSLRPPIDHLCELLPRLQARYYSIASSSKVHPNSVHICAVAVEYEAKSGRVNKGVATSWLRAKEPAGENGGRALVPMFVRKSQFRLPFKSTTPVIMVGPGTGIAPFMGFIQERAWLREQGKEVGETLLYYGCRRSDEDYLYREELARFHKDGALTQLNVAFSREQAHKVYVQHLLKRDREHLWKLIHEGGAHIYVCGDARNMAKDVQNTFYDIVAEFGPMEHTQAVDYVKKLMTKGRYSLDVWS
# Tests used:
# SEC = target: the molecule itself; assay: SEC
# [1] = target: human hepatic cytochrome P450 CYP3A4 in POPC Nanodiscs (human) (UniProt P08684); assay: SEC
# [2] = target: human hepatic cytochrome P450 CYP3A4 in POPC Nanodiscs (human) (UniProt P08684); assay: steady-state enzyme activity titration
binder,measurement,setting,value
B1,binding result,SEC,binds
same,stoichiometry N (CPR per CYP3A4),[1],1
same,Kd,[2],10 to 50 nM
